Assay results from publication PMC10266124 (mAbs, 2023).

B1: mAb21 (S2A4) (antibody, V domains shown)
VH: EVQLVESGGGLVQPGGSLRLSCAASGFTFSSYWMNWVRQAPGKGLEWVANIKQDGSEKYYVDSVKGRFTISRDNAKNSLFLQMNSLRAEDTAVYYCARVWWLRGSFDYWGQGTLVTVSS
VL: NFMLTQPHSVSESPGKTVTISCTGSSGSIASNYVQWYQQRPGSAPTTVIYEDNQRPSGVPDRFSGSIDSSSNSASLTISGLKTEDEADYYCQSYDSSNHVVFGGGTKLTVL
B2: mAb27 (H014) (antibody, V domains shown)
VH: EVQLVQSGAEVKKPGATVKISCKVSGYSFSNYYIHWVKQAPGKSLEWIGYIDPFNGGTSDNLKFKGAATLTADTSTDTAYMELSSLRSEDTAVYYCARSEYDPYYVMDYWGQGTTVTVSS
VL: IVLTQSPFQSVSPKEKVTITCRASQSISSNLHWYQQKPDQSPKLLIKYASQSISGIPSRFSGSGSGTDFTLTINSLEAEDFGIYFCQQTNFWPYIFGQGTKLEIL
B3: mAb26 (4A8) (antibody, V domains shown)
VH: EVQLVESGAEVKKPGASVKVSCKVSGYTLTELSMHWVRQAPGKGLEWMGGFDPEDGETMYAQKFQGRVTMTEDTSTDTAYMELSSLRSEDTAVYYCATSTAVAGTPDLFDYYYGMDVWGQGTTVTVSS
VL: EIVMTQSPLSSPVTLGQPASISCRSSQSLVHSDGNTYLSWLQQRPGQPPRLLIYKISNRFSGVPDRFSGSGAGTDFTLKISRVEAEDVGVYYCTQATQFPYTFGQGTKVDIK
B4: mAb03 (imdevimab) (antibody, V domains shown)
VH: QVQLVESGGGVVQPGRSLRLSCAASGFTFSNYAMYWVRQAPGKGLEWVAVISYDGSNKYYADSVKGRFTISRDNSKNTLYLQMNSLRTEDTAVYYCASGSDYGDYLLVYWGQGTLVTVSS
VL: QSALTQPASVSGSPGQSITISCTGTSSDVGGYNYVSWYQQHPGKAPKLMIYDVSKRPSGVSNRFSGSKSGNTASLTISGLQSEDEADYYCNSLTSISTWVFGGGTKLTVL

Legend:
Assay in all cases: electrochemiluminescence
[1] = molecular target: SARS-CoV-2 spike protein, Delta *3 (B.1.617.2; AY.3; AY.5; AY.6; AY.7; AY.14) (SARS-CoV-2, Delta (B.1.617.2; AY.3; …, L452R)
[2] = molecular target: SARS-CoV-2 spike protein, Delta *2 (B.1.617.2; AY.4.2) (SARS-CoV-2, Delta B.1.617.2; AY.4.2 …, L452R)
[3] = molecular target: SARS-CoV-2 spike protein, Delta *1 (B.1.617.2; AY.4) (SARS-CoV-2, Delta B.1.617.2; AY.4 …, L452R)
[4] = molecular target: SARS-CoV-2 spike protein, Gamma (P.1) (SARS-CoV-2, Gamma (P.1), E484K)

| Binder | relative binding (% of that to Wuhan spike, from AUCs) [1] [%] | relative binding (% of that to Wuhan spike, from AUCs) [2] [%] | relative binding (% of that to Wuhan spike, from AUCs) [3] [%] | relative binding (% of that to Wuhan spike, from AUCs) [4] [%] |
| --- | --- | --- | --- | --- |
| B1 | > 80 | > 80 | > 80 | – |
| B2 | > 80 | > 80 | > 80 | – |
| B3 | – | – | – | ≥ 20 |
| B4 | > 80 | > 80 | > 80 | – |
